# Molecular target: H-2Kb on the surface of RMA-S cells (mouse (endogenous in RMA-S))
# Test: stabilisation of Kb on RMA-S cells
Binder,relative efficiency of peptide-binding to Kb (parent OVA55-62 = 1),relative efficiency of peptide-binding to Kb (parent OVA257-264 = 1)
KVIRFDKL [OVA55-62/P3V->I],1,–
KVVNFDKL [OVA55-62/P4R->N],2,–
SVVRFDKL [OVA55-62/P1K->S],2,–
KVVRFEKL [OVA55-62/P6D->E],10,–

# Continued, values first:
relative efficiency of peptide-binding to Kb (parent OVA55-62 = 1),relative efficiency of peptide-binding to Kb (parent OVA257-264 = 1),Binder
–,1,KIINFEKL [OVA257-264/P1S->K]
–,1,SIVNFEKL [OVA257-264/P3I->V]
–,1,SIIRFEKL [OVA257-264/P4N->R]

# — paper PMC2191679
